Measured values reported in patent US20260241049A1, “Radiopharmaceutical Compositions Targeting Glypican-3 and Uses Thereof” (RayzeBio, Inc., priority 2023, published 2026).
Starred links: 1 amine or outer side, 2 acyl side, 3 side chain; linkers in the order of their positions; H or OH if unused. Positions of bridges follow the written chain, without caps; N, C: chain ends. Non-standard residues stand in square brackets, D forms with d. Groups on a side chain read outwards from the residue. Primed or numbered codes have the meaning given here. *: point of attachment. MeKCOpipzaa″ = (2S)-6-{[4-(carboxymethyl)piperazine-1-carbonyl]amino}-2-(methylamino)hexanoic acid, CN([C@@H](CCCCNC(=O)N1CCN(CC(=O)[*:3])CC1)C(=O)[*:2])[*:1]; DOTA‑Lu = DOTA-lutetium(175) amide on the side-chain amine, O=C([O-])CN1CCN(CC(=O)[O-])CCN(CC(=O)*)CCN(CC(=O)[O-])CC1.[175Lu+3]; MeHseMe″ = (2S)-4-methoxy-2-(methylamino)butanoic acid (N-methyl-O-methyl-L-homoserine), COCC[C@@H](C(=O)[*:2])N(C)[*:1]; F4aao = 4-(carboxymethoxy)-L-phenylalanine, O=C([C@H](Cc1ccc(OCC(=O)[*:3])cc1)N[*:1])[*:2]; F4aao(4) = 4-(carboxymethoxy)phenylalanine, O=C([C@H](Cc1ccc(OCC(=O)[*:3])cc1)N[*:1])[*:2]; MeHseMe(5) = N-methyl-O-methyl-homoserine, COCC[C@@H](C(=O)[*:2])N(C)[*:1]; MeHseMe = N-methyl-O-methyl-L-homoserine, COCC[C@@H](C(=O)[*:2])N(C)[*:1]; Thr(Me)(3) = TMe, O-methyl-L-threonine, CO[C@H](C)[C@H](N[*:1])C(=O)[*:2]; SulfoCy5 = sulfo-Cyanine5 hexanoyl dye on the side-chain amine; TMe = O-methyl-L-threonine, CO[C@H](C)[C@H](N[*:1])C(=O)[*:2]; TMe″ = O-methyl-threonine, CO[C@H](C)[C@H](N[*:1])C(=O)[*:2]; NMeAla(isoquinolin-7-yl) = CN[C@@H](Cc1ccc2ccncc2c1)C(=O)O; PEG12 = NCCOCCOCCOCCOCCOCCOCCOCCOCCOCCOCCOCCOCCC(=O)O; 3Pal(6-Ph) = N[C@@H](Cc1ccc(-c2ccccc2)nc1)C(=O)O; Biotin = O=C1N[C@H]2[C@H](CS[C@H]2CCCCC(=O)*)N1; Phe(4-COOH) = N[C@@H](Cc1ccc(C(=O)O)cc1)C(=O)O; d(tBuAla) = CC(C)(C)C[C@@H](N)C(=O)O; NMeI = CC[C@H](C)[C@H](NC)C(=O)O; NMeQ = CN[C@@H](CCC(N)=O)C(=O)O; NMeK = CN[C@@H](CCCCN)C(=O)O; NMeC = CN[C@@H](CS)C(=O)O

Biological target: T1, Human Glypican3-Fc (ACRO Biosystems, GP3-H5258) (human, UniProt P51654 25-559)
T1 construct: Bought fusion protein, captured in Methods B-2, B-3 and B-4; Catalogue number is printed only in Method B-2; not shown: Fc part of the bought fusion
Assay: SPR (Biacore T200), Method B-3: Glypican3-Fc captured on Protein A chip, peptide as analyte
Experimental: A Protein A sensor chip (Cytiva) was inserted into a Biacore T200 (Cytiva), priming was performed three times with a running buffer: HBS-P+, pH 7.4 (Cytiva), and equilibration was carried out at a flow rate of 30 μL/min. Glypican3-Fc was allowed to react for 60 seconds at a flow rate of 10 μL/min. After capturing human Glypican3-Fe, a peptide solution prepared to 10 mM in DMSO solution was diluted with a running buffer to a final concentration of 10 μM. […] Using the above samples, peptide kinetics for Glypican3 was obtained by SPR measurement. Kinetics evaluation of Glypican3 was performed by SPR measurements at a flow rate of 10 LL/min, setting the association time to 120 seconds and the disassociation time to 600 seconds.
The obtained data by Method B-1, Method B-2, Method B-3 and Method B-4 were analyzed by follow. Single Cycle Kinetics was used as the kinetics evaluation model, and curve fitting was performed using Biacore T200 Evaluation Software Version 3.0 (Cytiva).

Binder | Kd [nM]
Ac-[NMeK](DOTA‑Lu)[NMeI]D[NMeQ][Phe(4-COOH)][TMe″]IY[NMeAla(isoquinolin-7-yl)]G[3Pal(6-Ph)][NMeC]-NH2 (bridge N-12; not fully specified (bridges); also: DOTA-Lu: cold Lu-175 complex) [Lu-C-62] | 0.15
KQDQFTIFFGXC (MeK-MeQ-D-MeQ-F4COO-TMe-I-F4aao-MeNal27N-G-3Py6Ph-MeC-NH2; thioether ring from N-terminal acetyl to MeC12) [Macrocyclic peptide of Example 2-27 (SEQ ID No. 35)] | 1.1
{CH2CO}-[NMeK](Ac)[NMeI]D[NMeQ][Phe(4-COOH)]IIY[NMeAla(isoquinolin-7-yl)]G[3Pal(6-Ph)][NMeC]-NH2 (thioether N-12; SMILES CC[C@H](C)[C@@H]1NC(=O)[C@H](Cc2ccc(C(=O)O)cc2)NC(=O)[C@H](CCC(N)=O)N(C)C(=O)[C@H](CC(=O)O)NC(=O)[C@H]([C@@H](C)CC)N(C)C(=O)[C@H](CCCCNC(C)=O)N(C)C(=O)CSC[C@@H](C(N)=O)N(C)C(=O)[C@H](Cc2ccc(-c3ccccc3)nc2)NC(=O)CNC(=O)[C@H](Cc2ccc3ccncc3c2)N(C)C(=O)[C@H](Cc2ccc(O)cc2)NC(=O)[C@H]([C@@H](C)CC)NC1=O) [Macrocyclic peptide of Example 2-4 (SEQ ID No. 7)] | 0.3
{CH2CO}-[NMeK][NMeI]D[NMeQ][Phe(4-COOH)][TMe]IY[NMeAla(isoquinolin-7-yl)]G[3Pal(6-Ph)][NMeC]-NH2 (thioether N-12; SMILES CC[C@H](C)[C@@H]1NC(=O)[C@H]([C@@H](C)OC)NC(=O)[C@H](Cc2ccc(C(=O)O)cc2)NC(=O)[C@H](CCC(N)=O)N(C)C(=O)[C@H](CC(=O)O)NC(=O)[C@H]([C@@H](C)CC)N(C)C(=O)[C@H](CCCCN)N(C)C(=O)CSC[C@@H](C(N)=O)N(C)C(=O)[C@H](Cc2ccc(-c3ccccc3)nc2)NC(=O)CNC(=O)[C@H](Cc2ccc3ccncc3c2)N(C)C(=O)[C@H](Cc2ccc(O)cc2)NC1=O) [Macrocyclic peptide of Example 2-60 (SEQ ID No. 62)] | 0.23
{CH2CO}-[NMeK](His)[NMeI]D[NMeQ][Phe(4-COOH)]II[F4aao(4)][NMeAla(isoquinolin-7-yl)]G[3Pal(6-Ph)][NMeC]-NH2 (thioether N-12; SMILES CC[C@H](C)[C@@H]1NC(=O)[C@H](Cc2ccc(C(=O)O)cc2)NC(=O)[C@H](CCC(N)=O)N(C)C(=O)[C@H](CC(=O)O)NC(=O)[C@H]([C@@H](C)CC)N(C)C(=O)[C@H](CCCCNC(=O)[C@@H](N)Cc2c[nH]cn2)N(C)C(=O)CSC[C@@H](C(N)=O)N(C)C(=O)[C@H](Cc2ccc(-c3ccccc3)nc2)NC(=O)CNC(=O)[C@H](Cc2ccc3ccncc3c2)N(C)C(=O)[C@H](Cc2ccc(OCC(=O)O)cc2)NC(=O)[C@H]([C@@H](C)CC)NC1=O) [Macrocyclic peptide of Example 10-1 (SEQ ID No. 34)] | 0.51
{CH2CO}-[MeKCOpipzaa″][MeHseMe]D[NMeQ][Phe(4-COOH)][Thr(Me)(3)]IY[NMeAla(isoquinolin-7-yl)]G[3Pal(6-Ph)][NMeC]-NH2 (thioether N-12; SMILES CC[C@H](C)[C@@H]1NC(=O)[C@H]([C@@H](C)OC)NC(=O)[C@H](Cc2ccc(C(=O)O)cc2)NC(=O)[C@H](CCC(N)=O)N(C)C(=O)[C@H](CC(=O)O)NC(=O)[C@H](CCOC)N(C)C(=O)[C@H](CCCCNC(=O)N2CCN(CC(=O)O)CC2)N(C)C(=O)CSC[C@@H](C(N)=O)N(C)C(=O)[C@H](Cc2ccc(-c3ccccc3)nc2)NC(=O)CNC(=O)[C@H](Cc2ccc3ccncc3c2)N(C)C(=O)[C@H](Cc2ccc(O)cc2)NC1=O) [Macrocyclic peptide of Example 2-24 (SEQ ID No. 58)] | 0.5
{CH2CO}-[NMeK][MeHseMe″]D[NMeQ][Phe(4-COOH)][TMe]IY[NMeAla(isoquinolin-7-yl)]G[3Pal(6-Ph)][NMeC]-NH2 (thioether N-12; SMILES CC[C@H](C)[C@@H]1NC(=O)[C@H]([C@@H](C)OC)NC(=O)[C@H](Cc2ccc(C(=O)O)cc2)NC(=O)[C@H](CCC(N)=O)N(C)C(=O)[C@H](CC(=O)O)NC(=O)[C@H](CCOC)N(C)C(=O)[C@H](CCCCN)N(C)C(=O)CSC[C@@H](C(N)=O)N(C)C(=O)[C@H](Cc2ccc(-c3ccccc3)nc2)NC(=O)CNC(=O)[C@H](Cc2ccc3ccncc3c2)N(C)C(=O)[C@H](Cc2ccc(O)cc2)NC1=O, also called macrocyclic peptide 2b) [Macrocyclic peptide of Example B1 (SEQ ID No. 45)] | 0.2
{CH2CO}-[NMeK](dF)[NMeI]D[NMeQ][Phe(4-COOH)]II[F4aao(4)][NMeAla(isoquinolin-7-yl)]G[3Pal(6-Ph)][NMeC]-NH2 (thioether N-12; SMILES CC[C@H](C)[C@@H]1NC(=O)[C@H](Cc2ccc(C(=O)O)cc2)NC(=O)[C@H](CCC(N)=O)N(C)C(=O)[C@H](CC(=O)O)NC(=O)[C@H]([C@@H](C)CC)N(C)C(=O)[C@H](CCCCNC(=O)[C@H](N)Cc2ccccc2)N(C)C(=O)CSC[C@@H](C(N)=O)N(C)C(=O)[C@H](Cc2ccc(-c3ccccc3)nc2)NC(=O)CNC(=O)[C@H](Cc2ccc3ccncc3c2)N(C)C(=O)[C@H](Cc2ccc(OCC(=O)O)cc2)NC(=O)[C@H]([C@@H](C)CC)NC1=O) [Macrocyclic peptide of Example 10-2 (SEQ ID No. 41)] | 0.54
{CH2CO}-[NMeK](dE)[NMeI]D[NMeQ][Phe(4-COOH)]II[F4aao][NMeAla(isoquinolin-7-yl)]G[3Pal(6-Ph)][NMeC]-NH2 (thioether N-12) [Macrocyclic peptide of Example B9 (SEQ ID No. 33)] | 0.52
{CH2CO}-[NMeK]([PEG12-Biotin])[NMeI]D[NMeQ][Phe(4-COOH)]IIY[NMeAla(isoquinolin-7-yl)]G[3Pal(6-Ph)][NMeC]-NH2 (thioether N-12, Biotin conjugate) [PLB-1] | 0.25
{CH2CO}-[NMeK](SulfoCy5)[NMeI]D[NMeQ][Phe(4-COOH)][TMe]IY[NMeAla(isoquinolin-7-yl)]G[3Pal(6-Ph)][NMeC]-NH2 (thioether N-12) [Mod6] | 0.24
{CH2CO}-[NMeK](SulfoCy5)[MeHseMe]D[NMeQ][Phe(4-COOH)]II[F4aao][NMeAla(isoquinolin-7-yl)]G[3Pal(6-Ph)][NMeC]-NH2 (thioether N-12) [Mod5] | 3.6
KQDQFTIFFGXC (biotin-PEG12c conjugate of the peptide of SEQ ID No. 35 (MeK-MeQ-D-MeQ-F4COO-TMe-I-F4aao-MeNal27N-G-3Py6Ph-MeC-NH2); site of attachment shown only in a drawing; thioether ring from N-terminal acetyl to MeC12) [PLB-35] | 3.63
Ac-[NMeK](DOTA‑Lu)[MeHseMe(5)]D[NMeQ][Phe(4-COOH)]IIY[NMeAla(isoquinolin-7-yl)]G[3Pal(6-Ph)][NMeC]-NH2 (bridge N-12; not fully specified (bridges); also: cold Lu-175 chelated by DOTA) [Lu-C-72] | 0.36
Ac-[NMeK](DOTA‑Lu)[NMeI]D[NMeQ][Phe(4-COOH)]II[F4aao(4)][NMeAla(isoquinolin-7-yl)]G[3Pal(6-Ph)][NMeC]-NH2 (bridge N-12; not fully specified (bridges); also: DOTA-Lu: cold Lu-175 complex) [Lu-C-64] | 0.53
{CH2CO}-[NMeK][NMeI]D[NMeQ][Phe(4-COOH)]IIY[NMeAla(isoquinolin-7-yl)]G[3Pal(6-Ph)][NMeC]-NH2 (thioether N-12; SMILES CC[C@H](C)[C@@H]1NC(=O)[C@H](Cc2ccc(C(=O)O)cc2)NC(=O)[C@H](CCC(N)=O)N(C)C(=O)[C@H](CC(=O)O)NC(=O)[C@H]([C@@H](C)CC)N(C)C(=O)[C@H](CCCCN)N(C)C(=O)CSC[C@@H](C(N)=O)N(C)C(=O)[C@H](Cc2ccc(-c3ccccc3)nc2)NC(=O)CNC(=O)[C@H](Cc2ccc3ccncc3c2)N(C)C(=O)[C@H](Cc2ccc(O)cc2)NC(=O)[C@H]([C@@H](C)CC)NC1=O) [Macrocyclic peptide of Example 2-57 (SEQ ID No. 1)] | 0.17
{CH2CO}-[NMeK](d(tBuAla))[NMeI]D[NMeQ][Phe(4-COOH)]II[F4aao][NMeAla(isoquinolin-7-yl)]G[3Pal(6-Ph)][NMeC]-NH2 (thioether N-12; SMILES CC[C@H](C)[C@@H]1NC(=O)[C@H](Cc2ccc(C(=O)O)cc2)NC(=O)[C@H](CCC(N)=O)N(C)C(=O)[C@H](CC(=O)O)NC(=O)[C@H]([C@@H](C)CC)N(C)C(=O)[C@H](CCCCNC(=O)[C@H](N)CC(C)(C)C)N(C)C(=O)CSC[C@@H](C(N)=O)N(C)C(=O)[C@H](Cc2ccc(-c3ccccc3)nc2)NC(=O)CNC(=O)[C@H](Cc2ccc3ccncc3c2)N(C)C(=O)[C@H](Cc2ccc(OCC(=O)O)cc2)NC(=O)[C@H]([C@@H](C)CC)NC1=O) [Macrocyclic peptide of Example B8 (SEQ ID No. 42)] | 0.57
{CH2CO}-[NMeK][MeHseMe″]D[NMeQ][Phe(4-COOH)][TMe]I[F4aao][NMeAla(isoquinolin-7-yl)]G[3Pal(6-Ph)][NMeC]-NH2 (thioether N-12; SMILES CC[C@H](C)[C@@H]1NC(=O)[C@H]([C@@H](C)OC)NC(=O)[C@H](Cc2ccc(C(=O)O)cc2)NC(=O)[C@H](CCC(N)=O)N(C)C(=O)[C@H](CC(=O)O)NC(=O)[C@H](CCOC)N(C)C(=O)[C@H](CCCCN)N(C)C(=O)CSC[C@@H](C(N)=O)N(C)C(=O)[C@H](Cc2ccc(-c3ccccc3)nc2)NC(=O)CNC(=O)[C@H](Cc2ccc3ccncc3c2)N(C)C(=O)[C@H](Cc2ccc(OCC(=O)O)cc2)NC1=O) [Macrocyclic peptide of Example 2-59 (SEQ ID No. 63)] | 1.55
